No end group written: not given here.
Key:
[1] = target: T1, osteopontin (OPN), recombinant human (human, UniProt P10451 17-314); test: SPR
[2] = target: T1, osteopontin (OPN), recombinant human; test: SPR; remark: listed apart in the source

T1 sequence (P10451 17-314): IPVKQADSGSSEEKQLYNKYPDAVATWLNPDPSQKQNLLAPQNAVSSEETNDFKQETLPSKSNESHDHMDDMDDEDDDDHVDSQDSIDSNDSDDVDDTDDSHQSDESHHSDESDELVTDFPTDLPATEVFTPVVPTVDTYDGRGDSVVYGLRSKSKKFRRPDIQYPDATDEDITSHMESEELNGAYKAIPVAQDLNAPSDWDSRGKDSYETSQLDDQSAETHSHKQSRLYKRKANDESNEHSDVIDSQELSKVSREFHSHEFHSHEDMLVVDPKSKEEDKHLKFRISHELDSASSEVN

Binder | Kd [1] [nM] | koff [2] [s⁻¹]
GIINTLQKYYCRVRGGRCAVLSCLPKEEQIGKCSTRGRKCCRRKK (natural protein, ends and bridges not checked; cysteine pairing not given here) [human beta defensin-3 (hBD-3)] | 790 | 0.02
secretory leukocyte peptidase inhibitor (SLPI), recombinant human (natural protein) SGKSFKAGVCPPKKSAQCLRYKKPECQSDWQCPGKKRCCPDTCGIKCLDPVDTPNPTRRKPGKCPVTYGQCLMLNPPNFCEMDGQCKRDLKCCMGMCGKSCVSPVKA | 430 | 0.0016
midkine (natural protein) VAKKKDKVKKGGPGSECAEWAWGPCTPSSKDCGVGFREGTCGAQTQRIRCRVPCNWKKEFGADCKYKFENWGACDGGTGTKVRQGTLKKARYNAQCQETIRVTKPCTPKTKAKAKAKKGKGKD | 27 | 
lactoferrin purified from human milk (natural protein) GRRRSVQWCAVSQPEATKCFQWQRNMRKVRGPPVSCIKRDSPIQCIQAIAENRADAVTLDGGFIYEAGLAPYKLRPVAAEVYGTERQPRTHYYAVAVVKKGGSFQLNELQGLKSCHTGLRRTAGWNVPIGTLRPFLNWTGPPEPIEAAVARFFSASCVPGADKGQFPNLCRLCAGTGENKCAFSSQEPYFSYSGAFKCLRDGAGDVAFIRESTVFEDLSDEAERDEYELLCPDNTRKPVDKFKDCHLARVPSHAVVARSVNGKEDAIWNLLRQAQEKFGKDKSPKFQLFGSPSGQKDLLFKDSAIGFSRVPPRIDSGLYLGSGYFTAIQNLRKSEEEVAARRARVVWCAVGEQELRKCNQWSGLSEGSVTCSSASTTEDCIALVLKGEADAMSLDGGYVYTAGKCGLVPVLAENYKSQQSSDPDPNCVDRPVEGYLAVAVVRRSDTSLTWNSVKGKKSCHTAVDRTAGWNIPMGLLFNQTGSCKFDEYFSQSCAPGSDPRSNLCALCIGDEQGENKCVPNSNERYYGYTGAFRCLAENAGDVAFVKDVTVLQNTDGNNNEAWAKDLKLADFALLCLDGKRKPVTEARSCHLAMAPNHAVVSRMDKVERLKQVLLHQQAKFGRNGSDCPDKFCLFQSETKNLLFNDNTECLARLHGKTTYEKYLGPQYVAGITNLKKCSTSPLLEACEFLRK | 2500 | 0.01

— paper PMC4712133 (2016)
